According to article PMC3531269:
pIC50: −log10 of the molar value.

What was measured:
[1] = target: N-peptide N36 (aa 546-581 of HIV-1 HXB2 gp41 NHR) (HIV-1 HXB2) (UniProt P04578); test: ELISA
[2] = target: HIV-1 HXB2 Env (gp120/gp41) expressed on the surface of CHO-WT cells (HIV-1 HXB2) (UniProt P04578)

Substance	pIC50 [1]	IC50 of HIV-1 replication, Bal (B, R5) [2] [nM]	IC50 of HIV-1 replication, IIIB (B, X4) [2] [nM]	IC50 of HIV-1 replication, primary isolate 92TH009 (E/A, R5) [2] [nM]	IC50 of HIV-1 replication, primary isolate 92US657 (B, R5) [2] [nM]	IC50 of HIV-1 replication, primary isolate 93 MW959 (C, R5) [2] [nM]	IC90 of HIV-1 replication, Bal (B, R5) [2] [nM]	IC90 of HIV-1 replication, IIIB (B, X4) [2] [nM]	IC90 of HIV-1 replication, primary isolate 92TH009 (E/A, R5) [2] [nM]	IC90 of HIV-1 replication, primary isolate 92US657 (B, R5) [2] [nM]	IC90 of HIV-1 replication, primary isolate 93 MW959 (C, R5) [2] [nM]
2DLT (bivalent recombinant protein: D1D2 domain of CD4 linked to T1144 by a 35-mer linker) (designed binder)	6.30	10.8	5.64	17.5	17.2	18.9	44.4	28.8	71.9	51.9	48.9
T1144 (C-peptide, next generation HIV fusion inhibitor)	–	4.03	2.13	1.36	13.2	2.35	28.1	35.2	6.21	42.3	16.2
